{
  "source": "paper PMC5570898",
  "biological_target": "CHL1 on ventral midbrain dopaminergic neurons (mouse (endogenous in ventral midbrain primary neurons)) (UniProt P70232)",
  "data": [
    {"substance": "CHL1 recombinant protein (from UniProt P70232 26-1083) (natural protein)", "values": [
      {"measurement": "increase of TH+ neurite branching in E12.5 VM primary cultures on bound CHL1, against the Fc control", "result": 2.4, "unit": "fold"},
      {"measurement": "increase of TH+ neurite branching in E12.5 VM primary cultures with soluble CHL1, against the PDL control", "result": 5, "unit": "fold"},
      {"measurement": "increase of TH+ neurite length in E12.5 VM primary cultures on bound CHL1, against the Fc control", "result": 1.8, "unit": "fold"},
      {"measurement": "increase of TH+ neurite length in E12.5 VM primary cultures with soluble CHL1, against the PDL control", "result": 2, "unit": "fold"}
    ]}
  ]
}
